This note sets out measurements from patent US20210140973A1 (NITTO BOSEKI, published 2021).

Assay [1] deals with T1, Myeloma human IgG3 (Sigma-Aldrich Co. LLC) (human).
T1 construct: Bought myeloma protein
Kind of assay: indirect ELISA, antigen coated 1 µg/mL, antibody 1 µg/mL; no-antigen well 0.048. Here is the method: (§1) Myeloma human IgA1 (Abcam), Myeloma human IgA2 (Abcam), Myeloma human IgD (Abcam), Myeloma human IgE (Abcam), Myeloma human IgM (Abcam), Myeloma human IgG1 (EMD Millipore), Myeloma human IgG2 (EMD Millipore), Myeloma human IgG3 (Sigma-Aldrich Co. LLC), and Myeloma human IgG4 (EMD Millipore) were adjusted to 1 μg/mL with PBS(−). The adjusted samples were added to a 96-well plate (Thermo Fisher Scientific) by 100 μL, respectively. The plate was shaken by a shaker under the condition of 700 rpm and 25.0° C. for 1 hour. The solutions were discarded, the plate was cleaned with 300 μL of PBST 3 times, 100 μL of a blocking buffer solution was added to each well, and then the plate was stored at 4° C. one night or more. Similarly, after cleaning with PBST, the MaI4-08 and MaI4-09-produced antibodies were adjusted to 1 μg/mL with an antibody dilute buffer solution and then added to each well by 100 μL, and the plate was shaken under the same condition as mentioned above. Similarly, after cleaning with PBST, a HRP labeled anti-mouse IgG antibody (Abcam) diluted 4000-fold with an antibody dilute buffer solution was added to each well by 100 μL, and the plate was shaken under the same condition as mentioned above. Similarly, after cleaning with PBST, 100 μL of SureBlue (KPL) was added. 5 or 3 minutes later, 100 μL of 0.5 mol/L sulfuric acid (Wako Pure Chemical Corporation) was added to each of MaI4-08 and MaI4-09. Absorbance at a wavelength of 450 nm was measured with a microplate reader (BIO-RAD Laboratories, Inc.). As a result, a strong signal was given to Myeloma human IgG4 as compared to the other samples (Tables 2 and 3, and FIGS. 2 and 3).
For orientation: An ELISA detects its analyte on a solid surface through an enzyme-linked reagent.

Assay [2] has as its target Myeloma human IgA1 (Abcam) (human, UniProt P01876-1 1-353). Described as above. Here is the method:
as §1

Assay [3] addresses Myeloma human IgD (Abcam) (human, UniProt P01880-1 1-384). The description is as above. The procedure: as §1
The target in assay [4] is Myeloma human IgM (Abcam) (human, UniProt P01871-1 1-453). The assay is described as above. The procedure: as §1
Myeloma human IgM (Abcam), sequence (P01871 other isoform, or with tags, fused parts or gaps): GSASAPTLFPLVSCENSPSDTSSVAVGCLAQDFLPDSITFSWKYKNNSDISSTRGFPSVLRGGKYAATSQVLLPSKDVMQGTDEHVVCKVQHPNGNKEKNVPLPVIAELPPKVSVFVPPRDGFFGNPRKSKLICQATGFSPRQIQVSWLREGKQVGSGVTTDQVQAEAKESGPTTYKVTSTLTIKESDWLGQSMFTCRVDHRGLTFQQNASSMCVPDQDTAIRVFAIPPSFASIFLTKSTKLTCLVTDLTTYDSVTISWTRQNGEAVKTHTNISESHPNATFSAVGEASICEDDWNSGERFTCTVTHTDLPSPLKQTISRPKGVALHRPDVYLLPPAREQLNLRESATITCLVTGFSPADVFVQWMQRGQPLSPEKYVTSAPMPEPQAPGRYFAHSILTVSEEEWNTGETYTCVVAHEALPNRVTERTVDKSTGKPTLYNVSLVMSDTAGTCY
The target in assay [5] is Myeloma human IgA2 (Abcam) (human, UniProt P01877-1 1-340). The description is as above. Here is the method:
as §1

Assay [6] addresses Myeloma human IgE (Abcam) (human, UniProt P01854-1 1-428). The description is as above. The procedure:
as §1

Assay [7] addresses T2, Myeloma human IgG2 (EMD Millipore) (human).
T2 construct: Bought myeloma protein
The description is as above. Here is the method: as §1

The target in assay [8] is T3, GST-tagged peptide H11 (positions 275 to 327 of the human IgG4 heavy chain constant region) (human, UniProt P01861 275-325 = IgG part).
T3 construct: E. coli lysate on Western blot; not shown: GST tag (glutathione S-transferase) linked to the N terminal, expressed from vector pGEX-6P-1
T3 sequence (P01861 other isoform, or with tags, fused parts or gaps): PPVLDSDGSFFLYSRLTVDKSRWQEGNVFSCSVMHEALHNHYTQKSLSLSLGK
In words: Western blot: E. coli lysate with the GST-tagged peptide, SDS-PAGE, PVDF membrane, POD-labelled antibody diluted 1000-fold, ECL. The procedure:
(§2) Based on the designed amino acid sequences, base sequences suitable for expressing protein in E. coli were designed according to the protocol of GenScript Corporation, thereby preparing vector pGEX-6P-1 (GE Healthcare Bio-Sciences Corp.) to which the respective base sequences are inserted. The prepared expression plasmid was introduced to E. coli BL 21 strain, thereby obtaining a transformant. The transformant was cultured by an ordinary method and a protein expression was induced by IPTG. After the cells were collected by centrifugation, the cells were dissolved with an ordinary lysis solution, and subjected to ultrasonication. 6 μL of an SDS sample buffer solution was added to 6 μL of the obtained lysate. The respective prepared samples were subjected to a heat treatment at 95° C. for 5 minutes. 10 μL of the E. coli disrupted sample was added to each well of 5 to 20% electrophoresis gel (Atto Corportation) to which an SDS electrophoresis buffer solution was added. Similarly, a molecular weight standard (Bio-Rad Laboratories, Inc.) was added to each well and electrophoresed. After completing the electrophoresis, the electrophoresis gel was transcribed to a PVDF membrane (Millipore Corporation) with a transfer buffer solution. The PVDF membrane was immersed in a membrane blocking buffer solution, and then shaking was carried out at room temperature for 30 minutes. Amino groups of MaI4-08, MaI4-09, and MaI4-05-produced antibodies were subjected to a POD labeling treatment with a POD labeling kit (Dojindo Molecular Technologies, Inc.). The obtained labeled antibodies each were diluted 1000-fold by PBST. After the PVDF membrane was cleaned with PBST, the antibody solutions prepared each were added to the PVDF membrane, and then the reaction was performed at room temperature for 1 hour. After the PVDF membrane was cleaned by PBST, a signal was detected with ECL Prime Western Blotting Detection Reagents (GE Healthcare) with Image Quant Las4000.
In general terms: A western blot detects proteins with antibodies after separation by electrophoresis.

Assay [9] deals with T4, GST-tagged peptide H12 (positions 99 to 220 of the human IgG4 heavy chain constant region) (human, UniProt P01861 99-220 = IgG part).
T4 construct: E. coli lysate on Western blot; not shown: GST tag (glutathione S-transferase) linked to the N terminal, expressed from vector pGEX-6P-1
T4 sequence (P01861 99-220): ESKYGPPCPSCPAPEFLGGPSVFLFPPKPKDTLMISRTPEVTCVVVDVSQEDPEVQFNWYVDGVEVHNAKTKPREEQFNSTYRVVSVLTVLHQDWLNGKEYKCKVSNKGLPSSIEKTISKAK
The assay is described as above. Here is the method:
as §2

Assay [10] has as its target T5, GST-tagged peptide H4 (positions 1 to 165 of the human IgG4 heavy chain constant region) (human, UniProt P01861 1-165 = IgG part).
T5 construct: E. coli lysate on Western blot; not shown: GST tag (glutathione S-transferase) linked to the N terminal, expressed from vector pGEX-6P-1
The assay is described as above. Here is the method:
as §2

Assay [11] concerns the target T6, GST-tagged peptide H3 (positions 1 to 220 of the human IgG4 heavy chain constant region) (human, UniProt P01861 1-220 = IgG part).
T6 construct: E. coli lysate on Western blot; not shown: GST tag (glutathione S-transferase) linked to the N terminal, expressed from vector pGEX-6P-1
The assay is described as above. The procedure: as §2

Assay [12] addresses T7, GST-tagged peptide H5 (positions 1 to 110 of the human IgG4 heavy chain constant region) (human, UniProt P01861 1-110 = IgG part).
T7 construct: E. coli lysate on Western blot; not shown: GST tag (glutathione S-transferase) linked to the N terminal, expressed from vector pGEX-6P-1
The assay is described as above. Here is the method:
as §2

The target in assay [13] is T8, GST-tagged peptide H2 (positions 1 to 274 of the human IgG4 heavy chain constant region) (human, UniProt P01861 1-274 = IgG part).
T8 construct: E. coli lysate on Western blot; not shown: GST tag (glutathione S-transferase) linked to the N terminal, expressed from vector pGEX-6P-1
T8 sequence (P01861 1-274): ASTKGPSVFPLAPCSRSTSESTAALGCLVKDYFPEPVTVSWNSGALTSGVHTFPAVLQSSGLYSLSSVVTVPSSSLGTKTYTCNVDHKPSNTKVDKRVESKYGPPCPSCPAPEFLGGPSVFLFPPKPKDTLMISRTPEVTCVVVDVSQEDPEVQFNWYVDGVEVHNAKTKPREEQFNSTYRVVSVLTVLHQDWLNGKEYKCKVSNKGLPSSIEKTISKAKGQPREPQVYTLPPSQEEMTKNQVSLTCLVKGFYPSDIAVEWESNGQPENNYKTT
The description is as above. The procedure: as §2

The target in assay [14] is T9, GST-tagged peptide H6 (positions 1 to 55 of the human IgG4 heavy chain constant region) (human, UniProt P01859 1-55 = IgG part).
T9 construct: E. coli lysate on Western blot; not shown: GST tag (glutathione S-transferase) linked to the N terminal, expressed from vector pGEX-6P-1
T9 sequence (P01859 1-55): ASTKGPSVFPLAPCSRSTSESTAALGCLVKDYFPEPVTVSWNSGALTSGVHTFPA
The description is as above. Here is the method: as §2

T6 sequence (P01861 1-220): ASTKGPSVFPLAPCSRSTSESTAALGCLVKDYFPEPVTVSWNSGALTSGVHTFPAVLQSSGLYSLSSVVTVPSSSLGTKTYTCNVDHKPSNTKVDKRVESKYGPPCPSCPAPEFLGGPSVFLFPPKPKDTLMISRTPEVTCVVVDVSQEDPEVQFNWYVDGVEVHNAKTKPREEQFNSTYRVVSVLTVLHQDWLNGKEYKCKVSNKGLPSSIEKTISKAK
Myeloma human IgA1 (Abcam), sequence (P01876 other isoform, or with tags, fused parts or gaps): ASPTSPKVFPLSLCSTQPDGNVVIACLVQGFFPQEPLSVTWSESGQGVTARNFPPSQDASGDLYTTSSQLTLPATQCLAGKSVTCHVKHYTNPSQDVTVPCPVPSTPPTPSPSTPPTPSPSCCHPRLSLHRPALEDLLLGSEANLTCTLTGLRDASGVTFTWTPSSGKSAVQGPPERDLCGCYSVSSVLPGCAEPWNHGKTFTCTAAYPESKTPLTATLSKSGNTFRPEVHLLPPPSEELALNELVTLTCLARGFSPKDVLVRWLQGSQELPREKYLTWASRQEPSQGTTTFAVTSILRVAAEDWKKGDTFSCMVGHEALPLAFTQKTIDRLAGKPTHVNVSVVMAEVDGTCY
Myeloma human IgD (Abcam), sequence (P01880 other isoform, or with tags, fused parts or gaps): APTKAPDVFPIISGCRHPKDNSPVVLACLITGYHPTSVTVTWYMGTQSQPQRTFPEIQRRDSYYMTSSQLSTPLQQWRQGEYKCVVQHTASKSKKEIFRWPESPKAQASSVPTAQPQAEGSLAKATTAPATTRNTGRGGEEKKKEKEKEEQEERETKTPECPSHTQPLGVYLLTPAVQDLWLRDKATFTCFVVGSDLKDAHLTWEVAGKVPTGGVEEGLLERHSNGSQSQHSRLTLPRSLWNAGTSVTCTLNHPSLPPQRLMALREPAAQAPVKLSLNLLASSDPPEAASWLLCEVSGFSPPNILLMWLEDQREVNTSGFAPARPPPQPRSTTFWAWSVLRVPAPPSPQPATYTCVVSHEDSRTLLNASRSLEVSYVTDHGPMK
T7 sequence (P01861 1-110): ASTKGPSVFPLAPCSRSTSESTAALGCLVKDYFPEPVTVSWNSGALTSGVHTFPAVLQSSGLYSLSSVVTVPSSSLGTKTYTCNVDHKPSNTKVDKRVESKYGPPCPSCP
T2 sequence (constant, as listed by the source limits assumed): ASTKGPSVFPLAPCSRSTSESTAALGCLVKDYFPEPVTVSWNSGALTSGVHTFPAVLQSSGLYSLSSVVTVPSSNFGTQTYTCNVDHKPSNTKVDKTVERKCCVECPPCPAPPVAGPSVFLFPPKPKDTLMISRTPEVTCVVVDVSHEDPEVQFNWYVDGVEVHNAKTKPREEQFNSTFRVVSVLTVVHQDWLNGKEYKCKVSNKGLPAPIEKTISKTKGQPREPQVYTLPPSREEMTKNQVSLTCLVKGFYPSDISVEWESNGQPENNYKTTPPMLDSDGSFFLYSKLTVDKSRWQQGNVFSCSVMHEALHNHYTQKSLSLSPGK
T1 sequence (constant, as listed by the source limits assumed): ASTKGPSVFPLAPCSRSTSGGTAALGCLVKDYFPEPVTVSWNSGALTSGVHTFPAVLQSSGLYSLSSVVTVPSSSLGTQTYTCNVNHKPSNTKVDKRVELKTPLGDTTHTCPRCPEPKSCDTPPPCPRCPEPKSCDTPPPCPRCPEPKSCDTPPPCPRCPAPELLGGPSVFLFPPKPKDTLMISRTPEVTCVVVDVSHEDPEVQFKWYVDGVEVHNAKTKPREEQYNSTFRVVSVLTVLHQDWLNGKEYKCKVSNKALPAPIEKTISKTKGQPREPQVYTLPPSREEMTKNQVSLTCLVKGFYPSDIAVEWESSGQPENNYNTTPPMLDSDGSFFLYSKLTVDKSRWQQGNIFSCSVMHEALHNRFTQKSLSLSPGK
T5 sequence (P01861 1-165): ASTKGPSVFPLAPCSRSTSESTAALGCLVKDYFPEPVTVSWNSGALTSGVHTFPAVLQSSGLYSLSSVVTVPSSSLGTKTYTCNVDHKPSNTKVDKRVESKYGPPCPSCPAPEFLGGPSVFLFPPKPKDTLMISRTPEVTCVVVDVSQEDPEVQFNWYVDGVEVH
Myeloma human IgE (Abcam), sequence (P01854 other isoform, or with tags, fused parts or gaps): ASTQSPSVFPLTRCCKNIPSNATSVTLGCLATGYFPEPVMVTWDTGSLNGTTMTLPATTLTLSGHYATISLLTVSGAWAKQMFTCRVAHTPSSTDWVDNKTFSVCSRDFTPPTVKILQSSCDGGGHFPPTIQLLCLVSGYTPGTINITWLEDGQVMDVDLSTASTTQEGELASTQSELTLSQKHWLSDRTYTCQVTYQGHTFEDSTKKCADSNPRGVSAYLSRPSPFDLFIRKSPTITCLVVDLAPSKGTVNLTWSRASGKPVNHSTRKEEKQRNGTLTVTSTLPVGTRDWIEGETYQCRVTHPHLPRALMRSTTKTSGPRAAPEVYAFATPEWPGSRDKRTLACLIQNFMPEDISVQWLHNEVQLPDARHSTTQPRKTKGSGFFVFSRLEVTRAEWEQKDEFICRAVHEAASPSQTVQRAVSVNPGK
Myeloma human IgA2 (Abcam), sequence (P01877 other isoform, or with tags, fused parts or gaps): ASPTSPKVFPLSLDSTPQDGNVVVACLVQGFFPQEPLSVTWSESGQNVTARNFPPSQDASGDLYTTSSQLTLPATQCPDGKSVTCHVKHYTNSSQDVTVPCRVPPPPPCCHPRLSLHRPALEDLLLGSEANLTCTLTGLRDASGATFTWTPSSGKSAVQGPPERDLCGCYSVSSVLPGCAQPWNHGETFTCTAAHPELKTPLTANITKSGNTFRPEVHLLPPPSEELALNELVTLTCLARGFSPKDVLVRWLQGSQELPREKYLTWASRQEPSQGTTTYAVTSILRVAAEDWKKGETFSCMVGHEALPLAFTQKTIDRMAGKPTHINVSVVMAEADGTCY

B1: MaI4-09-produced antibody (antibody, IgG1, V domains shown)
VH: EVQLQQSGPELVKPGASVKMSCKASGYTFTSSVMHWMKQKPGQGLEWIGYINPYNDGTRYNEKFQGKATLTSDKSSNTAYMELSSLTSEDSAVYYCTRSFYYGNSHVLFAYWGQGTLVTVSA
VL: DIKMTQSPSSIYPSLGERVTITCKASQDINSYLSWFQQKPGKSPKTLIYRANRLVDGVPSRFSGSGSGQDYSLTISSLEYEDMGIYHCLQYDELPYTFGGGTTLEIK
notes: Purified on protein G from hybridoma culture supernatant; POD-labelled for the Western blots
For the molecule B1, the “absorbance at 450 nm” value came to 0.052 in [1]; 0.058 in assay [2]; 0.051 in assay [3]; 0.055 in [4]; 0.05 in assay [5]; 0.05 in [6]. Also, in assay [7], the “absorbance at 450 nm” value turned out to be 0.064. For the same molecule, the binding result in assay [8], in assay [9], in assay [10], in assay [11], in assay [12] and in assay [13] was “no binding” each time. Moreover, the binding result in assay [14] was “no binding”.
